T1: MYC-LC2 (UniProt P78559 2567-2803, limits assumed)
T1 construct: domain: light chain (LC2) subunit; also called LC2 (heterologously expressed, MYC-tagged); not shown: MYC tag
T1 sequence (looked up): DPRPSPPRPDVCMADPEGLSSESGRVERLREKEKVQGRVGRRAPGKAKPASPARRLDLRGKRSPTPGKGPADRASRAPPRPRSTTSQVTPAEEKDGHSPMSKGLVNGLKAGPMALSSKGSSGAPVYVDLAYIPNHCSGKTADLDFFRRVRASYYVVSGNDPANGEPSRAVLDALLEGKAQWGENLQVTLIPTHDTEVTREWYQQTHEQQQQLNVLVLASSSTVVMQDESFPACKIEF

B1: DRR^ΔHRE (other, UniProt O95990 1-144, looked up)
chain: MYSEIQRERADIGGLMARPEYREWNPELIKPKKLLNPVKASRSHQELAAALLMNHRRGLGVDSKPELQRVLEHRRRNQLIKKKKEELEAKRLQCPFEQELLRRQQRLNQLEKPPEKEEDHAPEFIKVRENLRRIATLTSEEREL
notes: also called non-LC2 form of DRR

What was measured:
[1] = target: actin (actin stress fibers / actin cytoskeleton of glioma cells); test: cell-based or functional assay
MYC-LC2 = target: T1, MYC-LC2; test: co-immunoprecipitation of heterologously expressed proteins

| Molecule | fold decrease in invasiveness in a 3D invasion assay [1] [fold] | binding result (MYC-LC2) |
| --- | --- | --- |
| DRR^ΔPEPE (from UniProt O95990 1-144) | 3 |  |
| B1 |  | no binding |
